The numbers were not newly measured in publication PMC3166722, which cites them from elsewhere.

Usually pKd stands for −log10 of the Kd, conventionally taken in molar units.

pKd: −log10 of the molar value. Like-named read-outs stand apart in the source and are kept apart here.

Series [1] deals with CaM (Homo sapiens) (UniProt P0DP23).
Series [2] shares this target. Briefly: resonant mirror detection (IAsys).
Series [3] concerns the target GPC (trypsinized IOVs) (Homo sapiens) (UniProt P04921). As to the kind of experiment: IOV binding, Scatchard analysis.

GPC (trypsinized IOVs) (Homo sapiens), sequence (P04921 whole entry): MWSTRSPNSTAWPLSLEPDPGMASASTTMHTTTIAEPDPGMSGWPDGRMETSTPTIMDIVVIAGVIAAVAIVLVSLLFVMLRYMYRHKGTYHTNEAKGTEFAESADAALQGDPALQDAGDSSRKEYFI
4.1R135, sequence (P11171 whole entry): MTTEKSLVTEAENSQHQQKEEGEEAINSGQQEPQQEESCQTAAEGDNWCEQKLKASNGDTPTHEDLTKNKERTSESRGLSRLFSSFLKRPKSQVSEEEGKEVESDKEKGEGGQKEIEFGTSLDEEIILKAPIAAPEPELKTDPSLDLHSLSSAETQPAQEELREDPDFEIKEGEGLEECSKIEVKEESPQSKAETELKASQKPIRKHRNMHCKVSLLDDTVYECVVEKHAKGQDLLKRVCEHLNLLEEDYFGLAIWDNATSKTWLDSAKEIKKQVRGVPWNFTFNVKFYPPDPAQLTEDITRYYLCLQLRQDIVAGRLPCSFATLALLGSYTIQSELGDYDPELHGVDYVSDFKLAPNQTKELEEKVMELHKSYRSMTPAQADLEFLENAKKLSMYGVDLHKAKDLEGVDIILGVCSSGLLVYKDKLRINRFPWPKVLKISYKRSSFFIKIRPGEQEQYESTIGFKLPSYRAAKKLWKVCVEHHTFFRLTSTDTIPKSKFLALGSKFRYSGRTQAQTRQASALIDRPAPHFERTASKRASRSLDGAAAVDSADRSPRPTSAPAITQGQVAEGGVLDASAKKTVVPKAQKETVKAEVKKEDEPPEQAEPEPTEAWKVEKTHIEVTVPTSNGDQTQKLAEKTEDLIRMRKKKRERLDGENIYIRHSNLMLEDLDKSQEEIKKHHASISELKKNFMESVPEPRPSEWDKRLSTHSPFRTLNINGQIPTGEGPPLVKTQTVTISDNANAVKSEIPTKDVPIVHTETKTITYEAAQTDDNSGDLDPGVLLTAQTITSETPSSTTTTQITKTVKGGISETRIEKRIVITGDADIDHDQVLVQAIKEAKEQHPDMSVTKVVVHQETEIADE
4.1R80, sequence (P11171 whole entry): as above

For the substance 4.1G (from UniProt O43491), the pKd in series [1] is 8.00.

Consider 4.1R135 (from UniProt P11171), for which the pKd in series [2] was 7.29; in series [3], 5.70.

Regarding 4.1R80 (from UniProt P11171), in series [3], the pKd is 7.12.
